Measured values taken from article PMC12052123, “Investigating the quaternary structure of a homomultimeric catechol 1,2-dioxygenase: An integrative structural biology study” (PLOS One, 2025).

Target: the molecule itself
Assay: native gel or EMSA; semi-native PAGE (8%), Tris-Gly buffer system without detergent or denaturing agents, 100 V, 18 °C, Coomassie; lyophilized and reconstituted SfC12DO

B1: catechol 1,2-dioxygenase from Stutzerimonas frequens GOM2 (enzyme, UniProt A0ABX6XR78 1-312, looked up)
chain: MTVKISHTNDVQQFFKEASGFNNDAGSSRLKTVINRVLADTARIIEDLEITQDEFWKAVDYINRLGGRHEAGLLVAGLGLEHYLDLLQDAKDEQEGLVGGTPRTIEGPLYVAGAPIAEGEVRMDDDSEEGVATTMFLQGRVTGPDGKPLAGATVDLWHANTKGNYSYFDKSQSEYNLRRRIVTDENGYYRARSIVPSGYGCSPDGPTQEVLDMLGRHGQRPAHIHFFISAPGHRHLTTQINLAGDKYLWDDFAYATRDGLVGDIRFIDDAEAARARGVQGRFAEVDFDFQLQKAPAPQAEQRSKRPRALQQA
notes: catechol 1,2-dioxygenase encoded by the CatA gene of Stutzerimonas frequens GOM2 (Pseudomonas stutzeri GOM2); regions are labelled up to residue 312; Non-heme Fe3+ enzyme; Number of copies depends on the sample: dimer when non-lyophilized; dimer, tetramer, (hexamer), octamer and >20-mer after lyophilization and reconstitution; also called SfC12DO; PsC12DO; source: used non-lyophilized, or …
- stoichiometry N: 6
